Assay results: IntAct's records for PubMed 21703453

B1: Tip elongation aberrant protein Tea4 (Schizosaccharomyces pombe (strain ATCC 38366 / 972)), O60132 (parent)
chain: MLHMNSASSADSMEIMESHFDPTQQNDSTIIESRYSPEEYLEQSFEIQRIISGENSEPQTVASQEISDSQEEDTTLTSSQFEDCGTEYNEVVEDDEFRSEDEDDFMDEEEEYALYEAELSSSPSIHEEVIDCNFVHAIRGFEATVEGQVDATKGDMMILLDDSNSYWWLVKMCKNLAIGYLPAEYIETPSERLARLNKYKNSETSNSQQSVTLPPLDIVEKTLEAPSPNFRIKRVTFTCSSNSSDDEMDSENDYEAMVNRTVAENGLEIEFSDSSDSSLSAEYRSESEDHVTDSPAYVDLTELEGGFNQFNSTSFQSTSPLGLEIVETEINGSSTTADSKNSHSPYSKFSSAYPDAENSNISKINISIAGNKELYGNATQSDPSLYSTWIANKHKTASSATVDSPLRRSLSVDAMQSNASFSSYSSTSNTDKSLRPSSYSAVSESSNFTHDVSRDNKEISLNAPKSIIVSQSDSFDTSNVTQDAPNDVEKEPISGQMPNNLSVQSLKQLEVYPIRHSVSIEMPSEKLLSPRLYSSSTPSSPTKGFQKDDEEDSENRKQADKVELSPSSLLRQMSLPVDSSSQSDAQCTTSSVYITAERKAFSQSSIDLSTLSNHHVNNEINRRSFAGGFTSLADELSEMRELLHESPAPLECNEEMVIPTPELDASSAIPSSSISHDEDLLPRKNTEESTSSSSFSSLITSPASLQYDENPFKQSVVAELNNNSSSVPFVDSAHASDIHAYDNDHVSTKNKEFNRRLREFILDPDSLSGLYWSVKSAGVRASRRVSRNIEGESVSSDLDDIFANVLKGLSDEMASLLNTNR
B2: Tip elongation aberrant protein Tea4 (Schizosaccharomyces pombe (strain ATCC 38366 / 972)), O60132 (parent)
chain: B1 chain
partner: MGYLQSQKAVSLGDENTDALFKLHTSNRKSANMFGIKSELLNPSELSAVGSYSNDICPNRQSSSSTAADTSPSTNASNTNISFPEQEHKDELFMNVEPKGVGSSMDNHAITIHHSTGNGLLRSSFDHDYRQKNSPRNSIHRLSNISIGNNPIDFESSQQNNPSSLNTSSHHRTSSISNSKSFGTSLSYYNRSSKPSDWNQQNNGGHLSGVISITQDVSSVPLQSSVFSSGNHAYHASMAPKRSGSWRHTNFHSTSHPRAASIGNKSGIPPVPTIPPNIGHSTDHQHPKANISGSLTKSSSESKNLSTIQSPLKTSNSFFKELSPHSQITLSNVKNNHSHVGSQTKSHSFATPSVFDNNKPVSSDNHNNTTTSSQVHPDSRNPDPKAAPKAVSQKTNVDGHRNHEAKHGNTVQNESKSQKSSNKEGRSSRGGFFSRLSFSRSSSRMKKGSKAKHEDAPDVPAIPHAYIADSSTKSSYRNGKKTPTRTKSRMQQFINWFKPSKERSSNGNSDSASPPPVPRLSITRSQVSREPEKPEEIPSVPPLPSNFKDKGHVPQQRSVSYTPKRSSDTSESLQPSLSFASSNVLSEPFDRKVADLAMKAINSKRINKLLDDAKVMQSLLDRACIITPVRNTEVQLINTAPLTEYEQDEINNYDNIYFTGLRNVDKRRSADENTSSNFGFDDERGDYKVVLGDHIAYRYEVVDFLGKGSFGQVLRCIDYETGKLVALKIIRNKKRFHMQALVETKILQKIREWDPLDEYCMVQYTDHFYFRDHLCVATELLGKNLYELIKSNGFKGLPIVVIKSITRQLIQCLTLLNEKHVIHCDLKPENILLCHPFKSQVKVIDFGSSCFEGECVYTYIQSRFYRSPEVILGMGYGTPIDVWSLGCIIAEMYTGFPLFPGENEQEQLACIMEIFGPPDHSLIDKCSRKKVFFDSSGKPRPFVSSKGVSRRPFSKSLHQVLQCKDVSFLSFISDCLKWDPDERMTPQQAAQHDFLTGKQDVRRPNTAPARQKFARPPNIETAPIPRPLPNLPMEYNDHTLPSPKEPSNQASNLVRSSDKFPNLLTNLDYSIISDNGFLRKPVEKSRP

Legend:
[1] = variants of: B1; settings: with pp11_schpo dis2, P13681
Sequence of pp11_schpo dis2, P13681 (P13681 whole entry): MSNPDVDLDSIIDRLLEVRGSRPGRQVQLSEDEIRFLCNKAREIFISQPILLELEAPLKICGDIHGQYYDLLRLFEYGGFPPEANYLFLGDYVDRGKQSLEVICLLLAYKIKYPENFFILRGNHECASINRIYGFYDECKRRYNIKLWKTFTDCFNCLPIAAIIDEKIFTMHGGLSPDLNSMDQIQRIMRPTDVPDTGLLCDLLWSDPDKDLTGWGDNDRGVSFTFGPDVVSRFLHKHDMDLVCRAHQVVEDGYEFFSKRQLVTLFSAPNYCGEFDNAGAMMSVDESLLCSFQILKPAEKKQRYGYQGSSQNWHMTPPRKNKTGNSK

[2] = variants of: B1; settings: with pp11_schpo dis2, P13681; remark: listed apart in the source
[3] = variants of: B2; settings: with pom1_schpo pom1, Q09690
[4] = variants of: B2; settings: with pom1_schpo pom1, Q09690; remark: listed apart in the source

Question: What does the source list for W167A;W168A?
Answer: effect of a mutation on the interaction [1]: disrupting interaction; effect of a mutation on the interaction [2]: decreasing interaction

Question: With V235A;F237A as the variant, how does the “effect of a mutation on the interaction” value [1] read?
Answer: Its value is “disrupting interaction”.

Question: For W167A;W168A, which “effect of a mutation on the interaction” value [3] is on record?
Answer: Its value is “decreasing interaction”.

Question: And the “effect of a mutation on the interaction” value [4]?
Answer: Its value is “disrupting interaction”.
